Laboratory results from patent CN115521375A (INST PASTEUR SHANGHAI CAS, dated 2022).

Experiments:
SARS-CoV-2原型株NTD蛋白 = biological target: T1, SARS-CoV-2原型株NTD蛋白 (SARS-CoV-2, UniProt P0DTC2 16-294); experiment: ELISA, coated antigen
T1 construct: range 16-294

SARS-CoV-2原型株RBD蛋白 [1] = biological target: T2, SARS-CoV-2原型株RBD蛋白 (SARS-CoV-2, UniProt P0DTC2 320-550); experiment: ELISA, coated antigen
SARS-CoV-2原型株(Wt)假病毒的S蛋白 = SARS-CoV-2原型株(Wt)假病毒的S蛋白 (SARS-CoV-2, UniProt P0DTC2 14-1273); experiment: cell-based or functional assay
SARS-CoV-2原型株RBD蛋白 [2] = biological target: T2, SARS-CoV-2原型株RBD蛋白; experiment: BLI, prototype RBD on the sensor, antibody in solution

Binder	binding result (SARS-CoV-2原型株NTD蛋白)	binding result (SARS-CoV-2原型株RBD蛋白 [1])	中和IC50, 假病毒中和试验 (SARS-CoV-2原型株(Wt)假病毒的S蛋白) [µg/mL]	半数抑制浓度(IC50), 假病毒中和试验 (SARS-CoV-2原型株(Wt)假病毒的S蛋白) [µg/mL]	Kd (SARS-CoV-2原型株RBD蛋白 [2]) [pM]
单抗3H3 (antibody, V domains shown, also called 抗体3H3) VH: QVQLQQPGAELVRPGASVKLSCKASGYSFTRFWMNWVKQRPGQGLEWIGMIHPSDSETRLNQKFKDKATLTVDKSSTTAYMQLSSPTSEDSAVYYCARKDYDYDAWFAYWGQGTLVTVSA VL: DIVLTQSPASLAVSLGQRATISCRASKSVSASVYSYMHWYQQKPGQPPKLLIYLASSLESGVPARFSGSGSGTDFTLNIHPVEEEDAATYYCHHSRELPPAFGGGTKLEIKR	no binding	no binding	0.083		
单抗5G2 (antibody, also called 抗体5G2) heavy: EVLLQQSGPELVKPGASVKIPCKASGYTFTDYNMDWVKQSHGKSLEWIGDINPNSGFIIYNQKFKGKASLTVDKSSSTAYMELRSLTSEDTAVYYCAREGYGNNFDYWGQGTTLSVSSAKTTPPSVYPLAPGCGDTTGSSVTLGCLVKGYFPESVTVTWNSGSLSSSVHTFPALLQSGLYTMSSSVTVPSSTWPSQTVTCSVAHPASSTTVDKKLEPSGPISTINPCPPCKECHKCPAPNLEGGPSVFIFPPNIKDVLMISLTPKVTCVVVDVSEDDPDVQISWFVNNVEVHTAQTQTHREDYNSTIRVVSTLPIQHQDWMSGKEFKCKVNNKDLPSPIERTISKIKGLVRAPQVYILPPPAEQLSRKDVSLTCLVVGFNPGDISVEWTSNGHTEENYKDTAPVLDSDGSYFIYSKLNMKTSKWEKTDSFSCNVRHEGLKNYYLKKTISRSPGK light: DILLTQSPTILSVSPGERVSFSCRASQSIGTSIHWYQQRTKGSPRLLIKYASESISGIPSRFSGSGSGTDFTLSINSVESEDIGDYYCQQSYSWPTTFGAGTKLELK				0.293	< 1
